# Patent US20100015126A1, “Methods of Binding of Cross-Beta Structures By Chaperones” (priority 2006, published 2010)
# Columns and labels:
# human BiP [1] = target: T1, human BiP (Homo sapiens, UniProt P11021); test: Competition ELISA: BiP binding to misfolded proteins under influence of crossbeta binding compounds; conditions: for Influence on interaction of BiP with misfolded proteins comprising crossbeta structure (summary in words): BiP binding without compound set to 100%
# T1 construct: The human BiP gene except the signal peptide encoding region was obtained from Geneart (Germany); linker […]; made in house; host or cells: HEK 293E cells, transient transfection, PABC674 vector; secreted into the medium
# In short: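 Misfolded protein ligands were coated in pH 9.6 bicarbonate, typically at 5 μg/ml. A fixed sub-optimal BiP concentration was incubated for 1 h at room temperature with crossbeta-binding compound series, and bound BiP was detected by peroxidase antibodies with TMB read at 450 nm. Signals were background-subtracted, and binding without compound was set to 100%.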
# [2] = target: T2, human mitochondrial HSP60 (Homo sapiens, UniProt P10809); test: Competition ELISA: HSP60 binding under influence of ThT or Congo red; conditions: concentration series of compound
# T2 construct: Dr. W. van Eden, Utrecht University; host or cells: E. coli
# [3] = Transmission electron microscopy (TEM); format: physicochemical; conditions: for TEM: 2.5 mg/ml peptide stocks; for Appearance on TEM images: magnification 10K
# Procedure: Transmission Electron Microscopy (TEM)
# TEM images were collected using a Jeol 1200 EX transmission electron microscope (Jeol Ltd., Tokyo, Japan) at an excitation voltage of 80 kV. For each sample, the formvar and carbon-coated side of a 100-mesh copper or nickel grid was positioned on a 5 μl drop of protein solution for 5 minutes. Afterwards, it was positioned on a 100 μl drop of PBS for 2 minutes, followed by three 2-minute incubations with a 100 μl drop of distilled water. The grids were then stained for 2 minutes with a 100 μl drop of 2% (m/v) methylcellulose with 0.4% uranyl acetate pH 4. Excess fluid was removed by streaking the side of the grids over filter paper, and the grids were subsequently dried under a lamp. Samples were analysed at a magnification of 10K.
# human BiP [4] = target: T1, human BiP; test: ELISA: binding of BiP in cell culture supernatant to immobilized misfolded proteins; conditions: undiluted supernatant of 293E cells overexpressing BiP; ligands coated at 5 μg/ml, Aβ 20 μg/ml
# Procedure: Binding of BiP to Misfolded Proteins with Crossbeta Structure
# Proteins at 5 μg/ml were coated for 1 h at room temperature with agitation, in Microlon high-binding ELISA plates (Greiner) in 50 mM NaHCO3 pH 9.6, except for Aβ that was coated at 20 μg/ml. Buffer was coated as negative control. A twofold dilutions series of cell culture supernatant of HEK 293E cells overexpressing BiP was also coated to the plate for anti-FLAG-tag antibody control purposes. Plates were washed and blocked with ½*Blocking reagent (Roche). Undiluted cell culture supernatant enriched with 0.1% Tween20 was added to the wells with immobilized protein ligands and incubated for 1 h at room temperature with agitation. Medium was discarded and the plate was washed with PBS with 0.1% v/v Tween20. Mouse monoclonal anti-FLAG-tag antibody (Sigma, A8592, anti-FLAG M2PO conjugate) was diluted 1000× in PBS/0.1% Tween20 and added to all wells, including those that are coated with cell culture supernatant. After a 1 h incubation at room temperature with agitation and after washing, wells were overlayed with 3000× diluted RAMPO (DAKOCytomation) in PBS/0.1% Tween20. After 30 minutes the plate was washed and bound peroxidase was visualised with tetramethylbenzidine (TMB, #45.103.20/#45.014.01, Biosource, Nivelles, Belgium). The reaction was stopped after 5 minutes with 10% H2SO4 in H2O. Plates were read at 450 nm.
# [5] = fixed sub-optimal BiP concentration, 10 mM ε-amino caproic acid
# T2 sequence (P10809 27-573): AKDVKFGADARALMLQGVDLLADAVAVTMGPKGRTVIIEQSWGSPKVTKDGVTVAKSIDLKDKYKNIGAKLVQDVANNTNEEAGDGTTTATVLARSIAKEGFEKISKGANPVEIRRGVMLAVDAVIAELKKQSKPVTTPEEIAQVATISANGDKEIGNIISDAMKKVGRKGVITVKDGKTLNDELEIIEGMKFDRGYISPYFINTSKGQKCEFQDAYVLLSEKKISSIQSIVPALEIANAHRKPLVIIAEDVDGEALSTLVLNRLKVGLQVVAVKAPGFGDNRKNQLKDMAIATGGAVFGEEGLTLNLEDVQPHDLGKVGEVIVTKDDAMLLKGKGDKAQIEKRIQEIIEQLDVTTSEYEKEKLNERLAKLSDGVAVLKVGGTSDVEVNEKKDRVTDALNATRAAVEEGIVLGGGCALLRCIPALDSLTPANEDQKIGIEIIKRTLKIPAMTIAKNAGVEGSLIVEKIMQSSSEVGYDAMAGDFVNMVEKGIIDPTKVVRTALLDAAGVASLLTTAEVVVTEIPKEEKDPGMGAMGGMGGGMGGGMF
# T1 sequence (P11021 19-654): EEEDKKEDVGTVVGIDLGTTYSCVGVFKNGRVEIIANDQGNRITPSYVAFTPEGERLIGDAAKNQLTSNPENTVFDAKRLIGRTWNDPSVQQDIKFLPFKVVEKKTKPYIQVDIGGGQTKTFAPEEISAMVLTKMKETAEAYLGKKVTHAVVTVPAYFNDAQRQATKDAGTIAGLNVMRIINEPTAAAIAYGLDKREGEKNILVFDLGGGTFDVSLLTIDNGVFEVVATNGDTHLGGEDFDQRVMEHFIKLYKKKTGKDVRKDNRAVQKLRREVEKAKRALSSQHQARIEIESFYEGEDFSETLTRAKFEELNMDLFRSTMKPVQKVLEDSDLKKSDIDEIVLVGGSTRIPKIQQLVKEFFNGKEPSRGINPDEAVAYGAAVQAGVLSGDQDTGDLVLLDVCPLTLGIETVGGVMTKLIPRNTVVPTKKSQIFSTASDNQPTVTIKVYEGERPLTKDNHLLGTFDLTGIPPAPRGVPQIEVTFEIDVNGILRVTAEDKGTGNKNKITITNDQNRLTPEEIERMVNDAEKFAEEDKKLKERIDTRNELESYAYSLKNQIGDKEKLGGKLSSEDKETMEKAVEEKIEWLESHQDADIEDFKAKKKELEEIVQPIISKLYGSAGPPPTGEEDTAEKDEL
molecule,measurement,setting,value
Nc1c(/N=N/c2ccc(-c3ccc(/N=N/c4cc(S(=O)(=O)O)c5ccccc5c4N)cc3)cc2)cc(S(=O)(=O)O)c2ccccc12 [Congo red],Influence on interaction of BiP with misfolded proteins comprising crossbeta structure (summary in words),human BiP [1],general inhibitors
same,Binding of HSP60 to Aβ42 under influence of compound,[2]; 10 or 30 μg/ml HSP60,inhibit
same,Binding of HSP60 to BSA-AGE under influence of compound,[2]; 10 or 30 μg/ml HSP60,inhibited
"Cc1ccc2c(c1)sc(-c1ccc(N(C)C)cc1)[n+]2C.[Cl-] [ThT, Thioflavin T]",Influence on interaction of BiP with misfolded proteins comprising crossbeta structure (summary in words),human BiP [1],"can either potentiate BiP binding, or inhibit"
same,Binding of HSP60 to misfolded IgIV (dIgIV-86) under influence of compound,[2]; 10 μg/ml HSP60,stimulates
same,Binding of HSP60 to Aβ42 under influence of compound,[2]; 10 or 30 μg/ml HSP60,inhibit
AGEYYAAL [6BB7],TEM,[3],Very few small
BSA-AGE,Binding of BiP to immobilized protein (ELISA),human BiP [4],binds
same,Appearance on TEM images,[3],non-fibrillar amorphous aggregates
"GSNKGAIIGLM [6BB6, Human Aβ (25-35)]",TEM,[3],Thin aggregated
same,Influence of K2P tPA on interaction of BiP with misfolded protein,human BiP [1]; [5],−
same,Influence of tPA on interaction of BiP with misfolded protein,human BiP [1]; [5],↓ (a ↓ sign refers to inhibited abolished binding of BiP)
same,Influence of IgIV on interaction of BiP with misfolded protein,"human BiP [1]; fixed sub-optimal BiP concentration, IgIV Octagam series",↓ (a ↓ sign refers to inhibited abolished binding of BiP)
same,Influence of Congo red on interaction of BiP with misfolded protein,"human BiP [1]; fixed sub-optimal BiP concentration, concentration series of Congo red",↓ (a ↓ sign refers to inhibited abolished binding of BiP)
same,Influence of ThS on interaction of BiP with misfolded protein,"human BiP [1]; fixed sub-optimal BiP concentration, concentration series of ThS",−
HbAGE: human haemoglobin glycated with glucose-6-phosphate for 75 weeks,Binding of BiP to immobilized protein (ELISA),human BiP [4],binds
same,Appearance on TEM images,[3],non-fibrillar amorphous aggregates
"KLVFFAE [6BB12, Human Aβ16-22]",TEM,[3],Large dense clusters
native BSA: non-modified bovine serum albumin control,Binding of BiP to immobilized protein (ELISA),human BiP [4],not
